In article PMC6476560 (PLoS ONE, 2019):

Columns and labels:
Experiment in all cases: MST
[1] = molecular target: fluorescently labelled Dop (deamidase of Pup; depupylase) (UniProt P9WNU9)
[2] = molecular target: fluorescein-labelled wild-type MtbMpa (Mycobacterium tuberculosis) (UniProt P9WQN5)
[3] = molecular target: T1, Pup-MSMEG_1807 (pupylated alpha-chain of propionyl-CoA carboxylase of M. smegmatis) (Mycobacterium smegmatis | Mycobacterium …, UniProt A0QTE1 1-598; P9WHN5 1-64, PupE (C-terminal glutamine as glutamate)); details: both partners purified
T1 construct: copies: 2 + 1

[4] = molecular target: T2, Pup-MSMEG_5049 (pupylated 2-oxoglutarate dehydrogenase E1 of M. smegmatis) (Mycobacterium smegmatis | Mycobacterium …, UniProt A0R2B1;P9WHN5, PupE (C-terminal glutamine as glutamate)); details: both partners purified
T2 construct: copies: 2 + 1
T2 sequence 1: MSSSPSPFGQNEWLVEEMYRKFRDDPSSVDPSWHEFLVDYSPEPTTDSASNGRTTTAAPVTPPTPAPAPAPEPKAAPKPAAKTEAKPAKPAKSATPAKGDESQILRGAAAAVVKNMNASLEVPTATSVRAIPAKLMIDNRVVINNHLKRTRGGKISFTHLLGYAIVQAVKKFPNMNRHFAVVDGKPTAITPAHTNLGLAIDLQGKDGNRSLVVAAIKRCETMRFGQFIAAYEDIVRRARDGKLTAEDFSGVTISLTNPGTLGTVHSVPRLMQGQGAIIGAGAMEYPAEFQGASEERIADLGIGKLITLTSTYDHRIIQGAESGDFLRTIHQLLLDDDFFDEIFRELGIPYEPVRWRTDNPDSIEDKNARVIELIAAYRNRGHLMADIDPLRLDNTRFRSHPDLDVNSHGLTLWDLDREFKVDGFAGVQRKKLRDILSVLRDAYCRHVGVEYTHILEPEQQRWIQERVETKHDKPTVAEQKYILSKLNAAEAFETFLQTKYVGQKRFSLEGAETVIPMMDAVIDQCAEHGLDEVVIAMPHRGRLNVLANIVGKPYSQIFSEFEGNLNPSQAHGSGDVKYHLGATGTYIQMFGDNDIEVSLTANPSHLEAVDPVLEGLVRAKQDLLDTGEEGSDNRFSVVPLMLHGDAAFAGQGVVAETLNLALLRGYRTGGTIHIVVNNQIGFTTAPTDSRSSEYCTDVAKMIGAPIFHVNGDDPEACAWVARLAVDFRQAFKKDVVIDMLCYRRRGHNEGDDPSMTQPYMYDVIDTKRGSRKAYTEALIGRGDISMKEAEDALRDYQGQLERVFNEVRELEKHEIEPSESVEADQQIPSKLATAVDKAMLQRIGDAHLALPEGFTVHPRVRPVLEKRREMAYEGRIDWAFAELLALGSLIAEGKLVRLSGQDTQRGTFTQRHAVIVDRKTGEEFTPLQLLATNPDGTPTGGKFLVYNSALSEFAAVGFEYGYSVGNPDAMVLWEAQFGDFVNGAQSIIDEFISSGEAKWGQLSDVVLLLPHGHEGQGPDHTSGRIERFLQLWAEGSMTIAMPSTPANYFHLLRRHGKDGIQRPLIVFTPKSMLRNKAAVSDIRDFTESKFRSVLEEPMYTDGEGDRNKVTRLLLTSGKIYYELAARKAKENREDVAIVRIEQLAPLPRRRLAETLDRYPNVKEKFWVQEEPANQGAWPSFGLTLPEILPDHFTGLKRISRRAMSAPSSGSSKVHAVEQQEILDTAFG
T2 sequence 2: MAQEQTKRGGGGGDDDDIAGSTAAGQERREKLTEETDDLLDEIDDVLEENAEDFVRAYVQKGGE

[5] = molecular target: T3, fluorescein-labelled wild-type MtbMpa (Mycobacterium tuberculosis, UniProt P9WQN5 1-609); details: both partners purified
T3 sequence: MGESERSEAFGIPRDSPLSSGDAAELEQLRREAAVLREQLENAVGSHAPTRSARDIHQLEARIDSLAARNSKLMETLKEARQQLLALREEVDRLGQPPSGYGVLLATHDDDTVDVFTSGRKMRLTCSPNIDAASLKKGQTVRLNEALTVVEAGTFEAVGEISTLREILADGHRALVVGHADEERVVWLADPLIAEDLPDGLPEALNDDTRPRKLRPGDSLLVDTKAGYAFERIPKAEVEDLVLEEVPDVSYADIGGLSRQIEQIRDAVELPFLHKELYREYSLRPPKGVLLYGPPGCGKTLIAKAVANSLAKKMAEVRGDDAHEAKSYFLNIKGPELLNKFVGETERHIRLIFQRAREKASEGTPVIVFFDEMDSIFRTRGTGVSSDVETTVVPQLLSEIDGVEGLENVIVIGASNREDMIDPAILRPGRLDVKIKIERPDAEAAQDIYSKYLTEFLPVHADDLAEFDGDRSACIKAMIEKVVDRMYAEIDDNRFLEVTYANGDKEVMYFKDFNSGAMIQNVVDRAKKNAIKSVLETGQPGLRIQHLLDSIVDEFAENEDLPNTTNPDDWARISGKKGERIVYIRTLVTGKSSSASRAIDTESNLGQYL

Work on “Pup-MSMEG_2412 (pupylated pyruvate carboxylase of M. smegmatis) (from UniProt P9WHN5 1-64) (complex)” yielded a Kd [1] of 114 nM.

Work on “Pup-FabD3KR (pupylated malonyl transacylase FabD, triple lysine-to-arginine variant) (from UniProt P9WNG5;P9WHN5) (complex)” yielded a Kd [2] of 240 nM.

B1: fluorescently labelled Dop (deamidase of Pup; depupylase) (enzyme)
chain: MQRIIGTEVEYGISSPSDPTANPILTSTQAVLAYAAAAGIQRAKRTRWDYEVESPLRDARGFDLSRSAGPPPVVDADEVGAANMILTNGARLYVDHAHPEYSAPECTDPLDAVIWDKAGERVMEAAARHVASVPGAAKLQLYKNNVDGKGASYGSHENYLMSRQTPFSAIITGLTPFLVSRQVVTGSGRVGIGPSGDEPGFQLSQRSDYIEVEVGLETTLKRGIINTRDEPHADADRYRRLHVIIGDANLAETSTYLKLGTTALVLDLIEEGPAHAIDLTDLALARPVHAVHAISRDPSLRATVALADGRELTGLALQRIYLDRVAKLVDSRDPDPRAADIVETWAHVLDQLERDPMDCAELLDWPAKLRLLDGFRQRENLSWSAPRLHLVDLQYSDVRLDKGLYNRLVARGSMKRLVTEHQVLSAVENPPTDTRAYFRGECLRRFGADIAAASWDSVIFDLGGDSLVRIPTLEPLRGSKAHVGALLDSVDSAVELVEQLTAEPR
Work on B1 yielded a Kd [3] of 339 ± 55 nM and a Kd [4] of 121 ± 28 nM.

B2: MtbPupE (prokaryotic ubiquitin-like protein Pup with C-terminal glutamate), free (natural protein)
chain: T2 sequence 2
With B2 the Kd [5] was 3310 ± 650 nM.
